Among the data in the supplement of paper PMC9233669 are self-aminoacylation values, retold here.

This sample holds only a part of the variants without activity.

The subject of one series is biotinyl-Phe-oxazolone. The experiment in a line: self-aminoacylation, catalytic enhancement (BFO) (fold over background); higher = more active; k-Seq, kA / k0A0; sequences stand for … in GGGAAUGGAUCCACAUCUACGAAUUC…UUCACUGCAGACUUGACGAAGCUG
Summed up:
(§1)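 Working in 50 μL HEPES/NaCl/KCl/MgCl2/CaCl2 buffer with 5% acetonitrile at pH 6.9–7.0, mutagenized RNA pools (0.43 μM; 21-nt variable region) were reacted with 2–1250 μM of each biotinyl-aminoacyl-oxazolone for 90 minutes at room temperature. Streptavidin capture followed, with quantification by triplicate qPCR and Illumina sequencing. Catalytic enhancement is reported as median kA over the uncatalyzed rate, the low-activity peak of a bimodal Gaussian fit to the data.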

Another series deals with biotinyl-Ile-oxazolone. In words: self-aminoacylation, catalytic enhancement (BIO) (fold over background); higher = more active; k-Seq, kA / k0A0; sequences stand for … in GGGAAUGGAUCCACAUCUACGAAUUC…UUCACUGCAGACUUGACGAAGCUG
Summed up:
as §1

The next series has as its system biotinyl-Met-oxazolone. The experiment in a line: self-aminoacylation, catalytic enhancement (BMO) (fold over background); higher = more active; k-Seq, kA / k0A0; sequences stand for … in GGGAAUGGAUCCACAUCUACGAAUUC…UUCACUGCAGACUUGACGAAGCUG
The procedure, abridged: as §1

For a further series, the system named is biotinyl-Val-oxazolone. In words: self-aminoacylation, catalytic enhancement (BVO) (fold over background); higher = more active; k-Seq, kA / k0A0; sequences stand for … in GGGAAUGGAUCCACAUCUACGAAUUC…UUCACUGCAGACUUGACGAAGCUG
The procedure, abridged: as §1

The test system of another series is biotinyl-Leu-oxazolone. In words: self-aminoacylation, catalytic enhancement (BLO) (fold over background); higher = more active; k-Seq, kA / k0A0; sequences stand for … in GGGAAUGGAUCCACAUCUACGAAUUC…UUCACUGCAGACUUGACGAAGCUG
Summed up: as §1

The test system of the next series is biotinyl-Trp-oxazolone. The experiment in a line: self-aminoacylation, catalytic enhancement (BWO) (fold over background); higher = more active; k-Seq, kA / k0A0; sequences stand for … in GGGAAUGGAUCCACAUCUACGAAUUC…UUCACUGCAGACUUGACGAAGCUG
The procedure, abridged: as §1

Turning to “ACUACCCUGGUCAUCGAGUGU [Fam2.1 aminoacylation ribozyme variant]”, the self-aminoacylation is 409 with biotinyl-Phe-oxazolone; 16.3 in the series on biotinyl-Ile-oxazolone; 58.6 in the series on biotinyl-Met-oxazolone; 20.3 in the series with biotinyl-Val-oxazolone; 59.7 in the series on biotinyl-Leu-oxazolone; 53.1 in the series with biotinyl-Trp-oxazolone.

As for “CUACUUCAAACAAUGGGUCUA [Fam1A.1 aminoacylation ribozyme variant]”, the self-aminoacylation with biotinyl-Phe-oxazolone amounted to 0.65; in the series with biotinyl-Ile-oxazolone, 0.847; in the series on biotinyl-Met-oxazolone, 0.611; in the series with biotinyl-Val-oxazolone, 0.756; in the series on biotinyl-Leu-oxazolone it was 0.638; with biotinyl-Trp-oxazolone it was 0.487.

Consider “CCACACUUCACGAAAUCGGUC [Fam1B.1 aminoacylation ribozyme variant]”, for which the self-aminoacylation with biotinyl-Phe-oxazolone turned out to be 0.814; with biotinyl-Ile-oxazolone, 0.987; in the series on biotinyl-Met-oxazolone it was 1.07; in the series on biotinyl-Val-oxazolone, 1.09; in the series with biotinyl-Leu-oxazolone, 1.16; with biotinyl-Trp-oxazolone, 1.02.

In the case of “AUUACCCUGAUCUUCGAGUGA [Fam2.1 aminoacylation ribozyme variant]”, the self-aminoacylation was 15.7 in the series with biotinyl-Phe-oxazolone; 2.56 in the series with biotinyl-Ile-oxazolone; 4.57 in the series with biotinyl-Met-oxazolone; 2.74 with biotinyl-Val-oxazolone; 5.04 in the series on biotinyl-Leu-oxazolone; 6.11 in the series with biotinyl-Trp-oxazolone.

In the case of “GUUGACCUAGGUCAUCGGGUG [Fam2.2 aminoacylation ribozyme variant]”, the self-aminoacylation in the series with biotinyl-Phe-oxazolone came out at 20; with biotinyl-Ile-oxazolone it was 4.11; in the series with biotinyl-Met-oxazolone it was 3.52; with biotinyl-Val-oxazolone, 3.67; in the series with biotinyl-Leu-oxazolone, 5.05; with biotinyl-Trp-oxazolone it was 5.59.

In the case of “CUACUUCAAACAAUCGUUUUG [Fam1A.1 aminoacylation ribozyme variant]”, the self-aminoacylation in the series with biotinyl-Phe-oxazolone amounted to 0.98; in the series with biotinyl-Ile-oxazolone it was 0.758; in the series on biotinyl-Met-oxazolone, 0.603; with biotinyl-Val-oxazolone, 0.669; in the series with biotinyl-Leu-oxazolone, 0.568; in the series with biotinyl-Trp-oxazolone, 0.576.

Regarding “AUUAACCUAAGUCAUCGGGUG [Fam2.2 aminoacylation ribozyme variant]”, the self-aminoacylation was found to be 63.5 in the series on biotinyl-Phe-oxazolone; 4.9 in the series with biotinyl-Ile-oxazolone; 8.41 in the series on biotinyl-Met-oxazolone; 4.74 with biotinyl-Val-oxazolone; 12.1 in the series on biotinyl-Leu-oxazolone; 7.95 with biotinyl-Trp-oxazolone.

“AUUGCCCUGUUCAUCGAGUGA [Fam2.1 aminoacylation ribozyme variant]”: the self-aminoacylation in the series on biotinyl-Phe-oxazolone is 25.2; with biotinyl-Ile-oxazolone, 3; with biotinyl-Met-oxazolone it was 5.44; in the series with biotinyl-Val-oxazolone, 4.12; in the series on biotinyl-Leu-oxazolone, 5.81; in the series with biotinyl-Trp-oxazolone, 7.43.

In the case of “CGACUUCAAACCAUCGGUCUG [Fam1A.1 aminoacylation ribozyme variant]”, the self-aminoacylation is 0.966 in the series with biotinyl-Phe-oxazolone; 0.838 in the series with biotinyl-Ile-oxazolone; 0.807 in the series on biotinyl-Met-oxazolone; 1.08 with biotinyl-Val-oxazolone; 0.811 in the series on biotinyl-Leu-oxazolone; 0.886 with biotinyl-Trp-oxazolone.

“AGUACCAUGGUCAUCGAGUGA [Fam2.1 aminoacylation ribozyme variant]”: the self-aminoacylation in the series on biotinyl-Phe-oxazolone turned out to be 29.9; in the series with biotinyl-Ile-oxazolone it was 4.22; with biotinyl-Met-oxazolone it was 6.66; with biotinyl-Val-oxazolone, 4.22; with biotinyl-Leu-oxazolone, 7.11; with biotinyl-Trp-oxazolone, 8.32.

For the sequence “UUUCACCUAGGUCCUCGGGUG [Fam2.2 aminoacylation ribozyme variant]”, the self-aminoacylation was 35.6 in the series on biotinyl-Phe-oxazolone; 3.82 with biotinyl-Ile-oxazolone; 4.17 in the series with biotinyl-Met-oxazolone; 4.22 in the series with biotinyl-Val-oxazolone; 4.92 in the series with biotinyl-Leu-oxazolone; 5.68 in the series on biotinyl-Trp-oxazolone.

In the case of “CUGCUUCAAACAAUCGGUCUG [Fam1A.1 aminoacylation ribozyme variant]”, the self-aminoacylation was found to be 125 in the series with biotinyl-Phe-oxazolone; 1.29 in the series on biotinyl-Ile-oxazolone; 1.72 in the series with biotinyl-Met-oxazolone; 1.35 in the series with biotinyl-Val-oxazolone; 2.83 with biotinyl-Leu-oxazolone; 53.5 in the series on biotinyl-Trp-oxazolone.

With “AAGACCCUGGUCAUCGAGUGA [Fam2.1 aminoacylation ribozyme variant]”, the self-aminoacylation stood at 21.6 with biotinyl-Phe-oxazolone; 4.58 in the series on biotinyl-Ile-oxazolone; 9.05 with biotinyl-Met-oxazolone; 4.66 in the series with biotinyl-Val-oxazolone; 10.2 with biotinyl-Leu-oxazolone; 9.36 in the series on biotinyl-Trp-oxazolone.

On to “AUUACCCUUGUCACCGAGUGA [Fam2.1 aminoacylation ribozyme variant]”, for which the self-aminoacylation stood at 50.2 in the series with biotinyl-Phe-oxazolone; 4.01 in the series on biotinyl-Ile-oxazolone; 8.49 in the series with biotinyl-Met-oxazolone; 4.31 in the series with biotinyl-Val-oxazolone; 9.28 with biotinyl-Leu-oxazolone; 11.1 with biotinyl-Trp-oxazolone.

On to “AUUCACCUAUGUCAUCGGGUU [Fam2.2 aminoacylation ribozyme variant]”, for which the self-aminoacylation in the series with biotinyl-Phe-oxazolone amounted to 0.724; with biotinyl-Ile-oxazolone, 1.35; in the series on biotinyl-Met-oxazolone it was 1.48; with biotinyl-Val-oxazolone, 1.61; with biotinyl-Leu-oxazolone, 1.86; in the series on biotinyl-Trp-oxazolone, 1.75.

As to “AUUCACCUAGUUCAUCAGGUG [Fam2.2 aminoacylation ribozyme variant]”, the self-aminoacylation with biotinyl-Phe-oxazolone came out at 0.467; with biotinyl-Ile-oxazolone, 0.872; in the series on biotinyl-Met-oxazolone, 0.796; in the series with biotinyl-Val-oxazolone, 0.934; in the series with biotinyl-Leu-oxazolone it was 0.986; with biotinyl-Trp-oxazolone, 0.893.

Consider “CCACACUCCAAGCAAUAGGUC [Fam1B.1 aminoacylation ribozyme variant]”, for which the self-aminoacylation was found to be 1.06 in the series on biotinyl-Phe-oxazolone; 0.741 in the series with biotinyl-Ile-oxazolone; 0.686 with biotinyl-Met-oxazolone; 0.845 in the series with biotinyl-Val-oxazolone; 0.569 in the series with biotinyl-Leu-oxazolone; 0.637 with biotinyl-Trp-oxazolone.

As to “AUACACCUAGGUCAUCGGGUG [Fam2.2 aminoacylation ribozyme variant]”, the self-aminoacylation in the series on biotinyl-Phe-oxazolone came to 19.8; with biotinyl-Ile-oxazolone, 2.93; in the series with biotinyl-Met-oxazolone, 3.88; with biotinyl-Val-oxazolone it was 2.96; in the series on biotinyl-Leu-oxazolone, 3.88; in the series on biotinyl-Trp-oxazolone it was 4.29.

As for “AUUCACCUAGGUCAACGGGUA [Fam2.2 aminoacylation ribozyme variant]”, the self-aminoacylation is 0.801 in the series on biotinyl-Phe-oxazolone; 1.41 in the series with biotinyl-Ile-oxazolone; 1.12 in the series on biotinyl-Met-oxazolone; 1.08 in the series on biotinyl-Val-oxazolone; 1.29 with biotinyl-Leu-oxazolone; 1.83 in the series on biotinyl-Trp-oxazolone.

Regarding “AUAACCCUGGUCAUCCAGUGA [Fam2.1 aminoacylation ribozyme variant]”, the self-aminoacylation in the series with biotinyl-Phe-oxazolone amounted to 22.8; with biotinyl-Ile-oxazolone, 3.62; in the series with biotinyl-Met-oxazolone it was 5.52; in the series on biotinyl-Val-oxazolone, 3.21; in the series with biotinyl-Leu-oxazolone, 6.28; in the series on biotinyl-Trp-oxazolone, 6.17.

As to “AAGUUUGCUAAUAGUAGCUAG [Fam3.1 aminoacylation ribozyme variant]”, the self-aminoacylation with biotinyl-Phe-oxazolone amounted to 1.05; in the series with biotinyl-Ile-oxazolone, 0.958; in the series on biotinyl-Met-oxazolone it was 1.28; in the series with biotinyl-Val-oxazolone, 0.988; in the series with biotinyl-Leu-oxazolone, 0.639; in the series on biotinyl-Trp-oxazolone, 1.14.

Take “AGUACCCUUGUCAUCGAGUGA [Fam2.1 aminoacylation ribozyme variant]”: the self-aminoacylation is 18.4 with biotinyl-Phe-oxazolone; 3.06 in the series on biotinyl-Ile-oxazolone; 5.76 in the series with biotinyl-Met-oxazolone; 3.48 in the series with biotinyl-Val-oxazolone; 6.28 in the series with biotinyl-Leu-oxazolone; 6.7 in the series with biotinyl-Trp-oxazolone.

In the case of “CUACUUCAAAUAAUCGAUCUG [Fam1A.1 aminoacylation ribozyme variant]”, the self-aminoacylation with biotinyl-Phe-oxazolone was 1.94; in the series with biotinyl-Ile-oxazolone, 0.669; with biotinyl-Met-oxazolone, 0.534; with biotinyl-Val-oxazolone, 0.592; with biotinyl-Leu-oxazolone, 0.495; in the series on biotinyl-Trp-oxazolone, 0.839.

Regarding “CCACAAUUCAAACAAUCGGUC [Fam1B.1 aminoacylation ribozyme variant]”, the self-aminoacylation with biotinyl-Phe-oxazolone is 18.1; in the series on biotinyl-Ile-oxazolone, 1.26; in the series on biotinyl-Met-oxazolone, 1.08; with biotinyl-Val-oxazolone it was 1.04; in the series on biotinyl-Leu-oxazolone, 1.19; in the series with biotinyl-Trp-oxazolone, 8.88.

With “CUACUUCAAACUAGCGGUCUG [Fam1A.1 aminoacylation ribozyme variant]”, the self-aminoacylation in the series with biotinyl-Phe-oxazolone was determined as 1.25; with biotinyl-Ile-oxazolone, 0.932; in the series on biotinyl-Met-oxazolone, 0.547; in the series with biotinyl-Val-oxazolone it was 0.803; in the series on biotinyl-Leu-oxazolone, 0.79; in the series with biotinyl-Trp-oxazolone, 0.732.
